One assay deals with T1, EGFR-mFc (human; mouse, UniProt P00533 25-645).
T1 construct: extracellular domain; Produced in HEK293 cells; also called recombinant EGFR-mFc; not shown: mouse IgG1-Fc domain
The experiment in a line: flow cytometry, CAR T cells stained with mFc fusion protein, Day 4. The source says: To determine target binding specificity of the CARs, recombinant proteins EGFRvII-mFc and EGFR-mFc, which comprise of the extracellular domain of either human EGFRvIII or human wild-type EGFR, respectively, fused with mouse IgG1-Fc domain, were produced in HEK293 cells. […]

Assay [1] has as its target T2, Monomeric 8-histidine tagged human EGFRvIII extracellular domain (human, UniProt P00533 298-645).
T2 construct: Analyte in all SPR assays; not shown: 8-histidine tag
The experiment in a line: SPR, captured by anti-human Fc, 25 C. As to the method:
Human anti-EGFRvIII antibodies were sequenced and subcloned into suitable vectors for expression as recombinant human IgG1 antibodies. […] (Table 9) on a surface plasmon resonance Biacore™ T200 biosensor equipped with an anti-human Fc coupled CM4 sensor chip (GE Healthcare Inc., Piscataway, N.J.). Anti-EGFRvII antibodies were captured by anti-human Fc. Monomeric 8-histidine tagged human EGFRvIII extracellular domain was then injected as the analyte at 10-fold dilution series starting at 1000 nM.
(Surface plasmon resonance follows binding to a sensor surface in real time, without labels.)

In assay [2] the target is T3, 8-histidine tagged recombinant wild-type protein EGFRwt (UniProt P00533 25-645, limits assumed).
T3 construct: not shown: 8-histidine tag
The experiment in a line: SPR, captured by anti-human Fc.

For assay [3], the target named is T2, Monomeric 8-histidine tagged human …. The experiment in a line: SPR, captured by anti-human Fc, 37 C. The source says: (§1) Anti-EGFRvII mouse (m) antibody, m62G7, generated from hybridomas was sequenced and subcloned into suitable vectors for expression as murine-human chimeric antibodies. The CDRs of mouse antibody m62G7 were grafted onto human framework and expressed as human IgG1 recombinant antibody, h62G7. Affinity variants of h62G7 were made by introducing mutations in the CDRs of the heavy and light chains. The affinities of recombinant anti-EGFRvIII chimeric antibody m62G7 and humanized h62G7 antibodies were measured on a surface plasmon resonance Biacore™ T200 biosensor equipped with a research-grade anti-human Fc coupled CM4 sensor chip (GE Healthcare Inc., Piscataway, N.J.). Anti-EGFRvII antibodies were then captured by anti-human Fc. Monomeric 8-histidine tagged human EGFRvIII extracellular domain was then injected as the analyte at 10-fold dilution series with top concentration at 1000 nM. Affinity of anti-EGFRvIII antibodies towards human EGFRvIII was measured at both 25° C. and 37° C.

The target is the same in assay [4]. The experiment in a line: SPR, captured by anti-human Fc, 25 C.
Description: as §1
This is another data set of the same source.

B1: h62G7-L6/EQ EGFRvIII specific CAR (other)
chain: DVVMTQSPLSLPVTLGQPASISCKSSQSLLYSNGKTYLNWFQQRPGQSPRRLIYQVSKLDSGVPDRFSGSGSGTDFTLKISRVEAEDVGVYYCGQDTHFPLTFGGGTKVEIKGGGGSGGGGSGGGGSGGGGSQVQLVQSGAEVKKPGASVKVSCKASGYTFTDYTLHWVRQAPGQGLEWMGGIWPITGGTTYNQKFKGRVTMTRDTSTSTVYMELSSLRSEDTAVYYCARGEAQGSWGQGTLVTVSSTTTPAPRPPTPAPTIASQPLSLRPEACRPAAGGAVHTRGLDFACDIYIWAPLAGTCGVLLLSLVITLYCKRGRKKLLYIFKQPFMRPVQTTQEEDGCSCRFPEEEEGGCELRVKFSRSADAPAYQQGQNQLYNELNLGRREEYDVLDKRRGRDPEMGGKPRRKNPQEGLYNELQKDKMAEAYSEIGMKGERRRGKGHDGLYQGLSTATKDTYDALHMQALPPR
notes: Chimeric antigen receptor on primary human T cells
As to B1, the binding result with EGFR-mFc was “no binding”.

B2: 20B9 EGFRvIII specific CAR (other)
chain: QVTLKESGPVLVKPTETLTLTCTVSGFSLSNARMGVSWIRQPPGKALEWLGHIFSTDEKSYSTSLRGRITISKDTSRGLVVLTLTNMDPVDTATYYCARDSSNYEGYFDFWGPGFLVTVSSGGGGSGGGGSGGGGSGGGGSEIVMTQSPATLSVSPGERATLSCRVSQSIGANLAWYQQKFGQAPRLLIYGASTRATGIPVRFSGGGSGTEFTLTISSLQSEDFAIYSCQQYIYWPFTFGPGTTVDIKTTTPAPRPPTPAPTIASQPLSLRPEACRPAAGGAVHTRGLDFACDIYIWAPLAGTCGVLLLSLVITLYCKRGRKKLLYIFKQPFMRPVQTTQEEDGCSCRFPEEEEGGCELRVKFSRSADAPAYQQGQNQLYNELNLGRREEYDVLDKRRGRDPEMGGKPRRKNPQEGLYNELQKDKMAEAYSEIGMKGERRRGKGHDGLYQGLSTATKDTYDALHMQALPPR
notes: as for B1
Consider B2, for which the binding result with EGFR-mFc is reported as “no binding”.

B3: 14C11 EGFRvIII specific CAR (other)
chain: QVTLKESGPVLVKPTETLTLTCTVSGFSLNNARMGVSWIRQPPGKALEWFAHIFSTDEKSFRTSLRSRLTLSKDTSKSQVVLTMTNMDPVDTATYYCARDSSNYEGYFDYWGQGILVTVSSGGGGSGGGGSGGGGSGGGGSEIVMTQSPATLSVSPGERATLSCRASQSVSNNLAWYQQKPGQAPRLLIYGASTRATGVPARFSGSDSGTEFSLTISSLQSEDFAVYFCQQYKDWPFTFGPGTKVEIKTTTPAPRPPTPAPTIASQPLSLRPEACRPAAGGAVHTRGLDFACDIYIWAPLAGTCGVLLLSLVITLYCKRGRKKLLYIFKQPFMRPVQTTQEEDGCSCRFPEEEEGGCELRVKFSRSADAPAYQQGQNQLYNELNLGRREEYDVLDKRRGRDPEMGGKPRRKNPQEGLYNELQKDKMAEAYSEIGMKGERRRGKGHDGLYQGLSTATKDTYDALHMQALPPR
notes: as for B1
Regarding B3, the binding result with EGFR-mFc was “no binding”.

B4: 32A10 EGFRvIII specific CAR (other)
chain: QVTLKESGPVLVKPTETLTLTCTVSGFSLSNARMGVSWIRQPPGKALEWLAHIFSTDEKSIRRSLRSRLTLSKDTSKSQVVLTMTNMDPVDTATYFCARDSSNYEGYFDYWGQGTLVTVSSGGGGSGGGGSGGGGSGGGGSEVVMTQSPATLSVSPGERVTLSCRASQSVSSNFAWYQQRPGQAPRLLLYGATTRATGLPGRFSGSGSGTENILTISSLQSEDFAIYFCQQYKDWPFTFGPGSKVDIKTTTPAPRPPTPAPTIASQPLSLRPEACRPAAGGAVHTRGLDFACDIYIWAPLAGTCGVLLLSLVITLYCKRGRKKLLYIFKQPFMRPVQTTQEEDGCSCRFPEEEEGGCELRVKFSRSADAPAYQQGQNQLYNELNLGRREEYDVLDKRRGRDPEMGGKPRRKNPQEGLYNELQKDKMAEAYSEIGMKGERRRGKGHDGLYQGLSTATKDTYDALHMQALPPR
notes: as for B1
Consider B4, for which, in the assay with EGFR-mFc, the binding result is given as “no binding”.

B5: C6 (antibody, V domains shown)
VH: QVQLVQSGAEVKKPGSSVKVSCKASGDTFSSNAISWVRQAPGQGLEWMGVIIPIFGTADYAQKFQGRVTITADESTSTAYMELSSLRSEDTAVYYCARHTYHEYAGGYYGGAMDPWGQGTLVTVSS
VL: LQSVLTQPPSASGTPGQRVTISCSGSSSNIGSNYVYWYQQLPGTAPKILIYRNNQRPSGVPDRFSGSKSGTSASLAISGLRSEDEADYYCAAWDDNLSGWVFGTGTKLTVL
notes: From a phage library; recombinant human IgG1
Broadly, the Kd is the free concentration of one partner at which half of the binding sites on the other are occupied at equilibrium, for simple one-to-one binding. A higher Kd goes with lower affinity. What is called koff is the rate constant with which the complex falls apart. A high value points to a short-lived complex. The kon is a measure of how fast the partners come together. In assay [1], B5 yielded a Kd of 532 nM, a koff of 0.00894 s⁻¹ and a kon of 16800 M⁻¹ s⁻¹.

B6: m62G7 (antibody, V domains shown)
VH: EVQLQQSGPELVKPGASVKISCKTSGYTFTDYTLHWVKQSHVKSLEWIGGIDPINGGTTYNQKFKGKATLTVDKSSSTAYMELRSLTSEDSAVYYCARGEAMDSWGQGTSVTVSS
VL: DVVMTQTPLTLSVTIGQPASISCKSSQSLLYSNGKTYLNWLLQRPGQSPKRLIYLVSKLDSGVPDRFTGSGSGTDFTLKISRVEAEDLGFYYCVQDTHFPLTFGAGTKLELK
notes: Tested as murine-human chimeric antibody, captured by anti-human Fc; also called recombinant anti-EGFRvIII chimeric antibody m62G7
On to B6, for which the binding result in assay [2] is “no binding (tested: 1000 nM)”. In assay [3], this molecule returned a Kd of 207 nM, a koff of 0.17 s⁻¹ and a kon of 800000 M⁻¹ s⁻¹. In assay [4], this molecule displayed a Kd of 88.7 nM, a koff of 0.064 s⁻¹ and a kon of 730000 M⁻¹ s⁻¹.

B7: 30D8 EGFRvIII specific CAR (other)
chain: EVQLVESGGGLVKPGGSLRLSCEASGFTFSDAWMSWVRQAPGKGLEWVGRIKSKTDGGTTDYVVPLNGRFIISRDDSRNTLYLQLNNLKTEDTAVYYCTTVPGSYGYWGQGTLVTVSSGGGGSGGGGSGGGGSGGGGSDIVMTQSPLSLPVTPGEPASISCRSSQSLLHNKRNNYLDWFLQKPGQSPQLLIYLASNRASGVPDRFSGGGSGTDFTLKISRVEAEDVGVYYCMQAQQTPITFGQGTRLEIKTTTPAPRPPTPAPTIASQPLSLRPEACRPAAGGAVHTRGLDFACDIYIWAPLAGTCGVLLLSLVITLYCKRGRKKLLYIFKQPFMRPVQTTQEEDGCSCRFPEEEEGGCELRVKFSRSADAPAYQQGQNQLYNELNLGRREEYDVLDKRRGRDPEMGGKPRRKNPQEGLYNELQKDKMAEAYSEIGMKGERRRGKGHDGLYQGLSTATKDTYDALHMQALPPR
notes: as for B1
On to B7, for which the binding result with EGFR-mFc is listed as “no binding”.

B8: 26B9 EGFRvIII specific CAR (other)
chain: EVQLVESWGVLVKPGGSLRLSCAASGFIFNNAWMSWVRQAPGKGLEWIGRIKSKSDGGTTDYAAPVKDRFTISRDDSKDTLYLQMNGLKTEDTAVYFCTTAPGGPFDYWGQGTLVTVSSGGGGSGGGGSGGGGSGGGGSDIVLTQSPLSLPVTPGEPASISCRSSQSLLHRDGFNYLDWFLQKPGQSPQLLIYLASSRASGVPDRFSGSDSGTDFTLKISRVEAEDVGVYYCMQALQTPITFGQGTRLEIKTTTPAPRPPTPAPTIASQPLSLRPEACRPAAGGAVHTRGLDFACDIYIWAPLAGTCGVLLLSLVITLYCKRGRKKLLYIFKQPFMRPVQTTQEEDGCSCRFPEEEEGGCELRVKFSRSADAPAYQQGQNQLYNELNLGRREEYDVLDKRRGRDPEMGGKPRRKNPQEGLYNELQKDKMAEAYSEIGMKGERRRGKGHDGLYQGLSTATKDTYDALHMQALPPR
notes: as for B1
As for B8, the binding result with EGFR-mFc is given as “no binding”.

B9: 20E12 EGFRvIII specific CAR (other)
chain: EVNLVESGGGLVKPGGSLRLSCEASGFTFSYAWMSWVRQAPGKGLEWVGRIKSIADGGATDYAAPVRNRFTISRDDSRNTLYLEMHSLKTEDTAVYYCTTIPGNDAFDMWGQGTMVTVSSGGGGSGGGGSGGGGSGGGGSDIVLTQSPLSLSVTPGEPASISCRSSQSLLYSNGKNYLDWFLHKPGQSPQLLIYLGSNRASGVPDRFSGSGSGIDFILKISRVEAEDVGVYYCMQAQQTPITFGQGTRLEIKTTTPAPRPPTPAPTIASQPLSLRPEACRPAAGGAVHTRGLDFACDIYIWAPLAGTCGVLLLSLVITLYCKRGRKKLLYIFKQPFMRPVQTTQEEDGCSCRFPEEEEGGCELRVKFSRSADAPAYQQGQNQLYNELNLGRREEYDVLDKRRGRDPEMGGKPRRKNPQEGLYNELQKDKMAEAYSEIGMKGERRRGKGHDGLYQGLSTATKDTYDALHMQALPPR
notes: as for B1
Regarding B9, in the assay with EGFR-mFc, the binding result is given as “no binding”.

B10: 42G9 EGFRvIII specific CAR (other)
chain: QVTLKESGPVLLKPTETLTLTCTVSGFSLSNPRMGVSWIRQPPGKALEWFAHIFSTDEKSLKLSLRSRLTLSKDTSKSQVVLTMTNMAPVDSATYYCARDSSNYEGYFDFWGQGTLVTVSSGGGGSGGGGSGGGGSGGGGSEVVLTQSPATLSVSPGERATLSCRASQSVRSNLAWYQQKSGQAPRLLIYGSTIRATGVPARFSGSGSGTEFTLTISSLQSEDFAVYYCQQYSDWPFTFGPGTKVDIKTTTPAPRPPTPAPTIASQPLSLRPEACRPAAGGAVHTRGLDFACDIYIWAPLAGTCGVLLLSLVITLYCKRGRKKLLYIFKQPFMRPVQTTQEEDGCSCRFPEEEEGGCELRVKFSRSADAPAYQQGQNQLYNELNLGRREEYDVLDKRRGRDPEMGGKPRRKNPQEGLYNELQKDKMAEAYSEIGMKGERRRGKGHDGLYQGLSTATKDTYDALHMQALPPR
notes: as for B1
As to B10, in the assay with EGFR-mFc, the binding result is “no binding”.

B11: B5 (antibody, V domains shown)
VH: EVQLLESGGGLVQPGGSLRLSCAASGFTFSNYAMSWVRQAPGKGLEWVSDISGGGGRTYYADSVKGRFTISRDNSKNTLYLQMNSLRAEDTAVYYCARAGLLYGGGVYPMDIWGQGTLVTVSS
VL: not shown
notes: as for B5
For the molecule B11, in assay [1], binding was characterised by a dissociation constant (Kd) of 678 nM, the koff amounted to 0.0141 s⁻¹ and the kon stood at 20800 M⁻¹ s⁻¹.

The record behind these values is US20190144550A1 (Pfizer, published 2019).
